pKd: −log10 of the molar value.
Experiments:
[1] = target: human CLDN18.2 as used in the Octet assay (human); experiment: Octet (BLI); format not described
[2] = target: recombinant 6xHis tagged human CLDN18.2 (human); experiment: SPR (Biacore); same values as Table 30
[3] = target: recombinant 6xHis tagged human CLDN18.2 (human); experiment: SPR (Biacore T200), His tagged CLDN18.2 amine-coupled on CM5, antibody as analyte, 1:1 fit

IMAB362 (Zolbetuximab) (antibody)
pKd [1]: 8.80
pKd [2]: 6.94
pKd [3]: 6.94

— patent US20240270839A1
